Source: patent publication US20150152192A1 (SAMSUNG ELECTRONICS, published 2015)

T1: mouse Ang2 (Accession # NP-031452) (R&D Systems) (mouse, UniProt O35608 19-496, limits assumed)
T1 construct: Bought protein; also called mAng2
T1 sequence (looked up): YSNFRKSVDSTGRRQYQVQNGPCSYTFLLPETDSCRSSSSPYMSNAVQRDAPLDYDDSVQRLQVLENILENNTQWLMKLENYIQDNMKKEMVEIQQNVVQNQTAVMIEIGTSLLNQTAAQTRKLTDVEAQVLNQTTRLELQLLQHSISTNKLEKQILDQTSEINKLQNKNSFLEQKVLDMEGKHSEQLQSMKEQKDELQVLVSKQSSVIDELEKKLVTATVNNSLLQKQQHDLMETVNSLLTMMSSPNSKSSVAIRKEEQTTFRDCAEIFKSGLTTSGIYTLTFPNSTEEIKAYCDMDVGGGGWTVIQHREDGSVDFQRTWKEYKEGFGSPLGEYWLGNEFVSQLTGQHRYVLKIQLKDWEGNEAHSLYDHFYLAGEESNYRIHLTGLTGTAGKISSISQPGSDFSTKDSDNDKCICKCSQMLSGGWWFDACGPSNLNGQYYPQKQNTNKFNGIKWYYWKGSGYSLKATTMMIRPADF

T2: recombinant hAng2 (C-His, R&D Systems) (human, UniProt O15123 19-496)
T2 construct: Bought protein captured on an anti-His chip; not shown: C-terminal His tag
T2 sequence: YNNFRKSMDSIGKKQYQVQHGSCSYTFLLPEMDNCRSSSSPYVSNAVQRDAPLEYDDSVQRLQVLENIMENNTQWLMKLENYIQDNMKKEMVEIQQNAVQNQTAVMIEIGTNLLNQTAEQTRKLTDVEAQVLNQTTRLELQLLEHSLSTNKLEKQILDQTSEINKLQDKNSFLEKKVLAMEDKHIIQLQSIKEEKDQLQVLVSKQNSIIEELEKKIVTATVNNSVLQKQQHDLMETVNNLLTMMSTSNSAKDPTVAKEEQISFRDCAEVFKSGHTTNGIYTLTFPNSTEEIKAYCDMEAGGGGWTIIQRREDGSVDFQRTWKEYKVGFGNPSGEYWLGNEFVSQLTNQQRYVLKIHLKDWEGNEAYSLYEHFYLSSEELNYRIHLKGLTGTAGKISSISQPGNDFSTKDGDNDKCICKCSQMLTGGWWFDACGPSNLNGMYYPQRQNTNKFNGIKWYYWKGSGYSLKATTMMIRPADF

T3: FLAG-Tagged hAng2 (human, UniProt O15123 19-496, limits assumed)
T3 construct: also called FLAG-Ang2; non-mutated Ang2
T3 sequence: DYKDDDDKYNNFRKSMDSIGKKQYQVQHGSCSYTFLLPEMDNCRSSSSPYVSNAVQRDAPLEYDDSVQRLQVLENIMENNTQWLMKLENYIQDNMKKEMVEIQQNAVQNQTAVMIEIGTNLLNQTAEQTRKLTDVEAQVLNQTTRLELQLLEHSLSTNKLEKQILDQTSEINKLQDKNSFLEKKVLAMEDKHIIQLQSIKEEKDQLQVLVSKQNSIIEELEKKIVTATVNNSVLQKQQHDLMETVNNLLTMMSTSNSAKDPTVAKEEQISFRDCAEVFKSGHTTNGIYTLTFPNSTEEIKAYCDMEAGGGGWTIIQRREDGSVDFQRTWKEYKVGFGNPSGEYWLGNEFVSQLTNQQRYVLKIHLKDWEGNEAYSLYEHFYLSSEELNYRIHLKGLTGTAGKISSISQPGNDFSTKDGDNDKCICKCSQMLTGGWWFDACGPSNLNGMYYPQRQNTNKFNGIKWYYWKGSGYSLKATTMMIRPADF


How the values were obtained:
[1] = molecular target: T1, mouse Ang2 (Accession # NP-031452) (R&D …); assay: ELISA, antigen coated, IgG, anti-hFc-HRP; 50% binding concentration (Kd)
Experimental: To measure binding of the antibodies prepared above with each antigen, ELISA was performed. A 96-well MaxiSorp™ flat-bottom plate (Nunc) was coated with 5˜20 μg/ml of human Ang2 and mouse Ang2 (Accession # NP_{—}031452) (both, R&D Systems). After that, the plate was washed five times with 0.05% (v/v) Tween-20-containing PBS and then blocked with 1% (v/v) BSA-containing PBS at a room temperature for 2 hours. The anti-Ang2 antibodies in their IgG forms prepared above (0.001, 0.01, 0.1, 1, 10, 100, and 1000 nM) were added to each well of the plate which was then allowed to react at a room temperature for 2 hours.
(§1) Thereafter, the plate was washed five times with 0.05% Tween-20-containing PBS and then, an HRP-conjugated anti-human FC (Anti-hFc-HRP conjugated) antibody (SIGMA) diluted in 1% (v/v) BSA-containing PBS at 1:5,000 ratio (v/v) was added in the amount of 50 μl to each well to react at a room temperature for 1 hour, followed by washing five times with 0.1% (v/v) Tween-20-containing PBS. Finally, 100 μl of TMB substrate (cell signal) was added to each well of the plate to induce color development at a room temperature for 3 min and then, the reaction was ceased by the addition of 50 μl of 5N H₂SO₄ solution and OD450 values were measured on a plate reader (Molecular Devices).

[2] = molecular target: T2, recombinant hAng2 (C-His, R&D Systems); assay: SPR, BIAcore T100, hAng2-His captured on anti-His CM5 chip, antibody flowed
Experimental: To measure accurate affinities toward an anti-Ang2 antigen, antigen affinities were measured by a SPR method using a BIAcore T100 (GE Healthcare). The SPR method uses refractive index change of light which passes a sensor chip according to the state of materials coated onto the sensor chip, and if an antigen or an antibody is flowed onto a chip coated with the antigen or antibody, it causes changes in refractive index due to their binding and Kd values are thus calculated from the measured values.
First, anti-His antibody was immobilized on a CM5 sensor chip (GE healthcare) up to 8,000 RU levels using a pH 5.0 acetate solution and an amine coupling kit (GE Healthcare). 6 μg/ml of a recombinant hAng2 (C-His, R&D Systems) protein was flowed onto the chip to be captured at 100 to 200 RU levels.

FLAG-Tagged hAng2 = molecular target: T3, FLAG-Tagged hAng2; assay: competitive ELISA: hTie2-Fc coated, 400 ng/ml FLAG-hAng2 plus IgG, anti-FLAG-HRP
Experimental: To verify molecular interaction of the bound assemblies, a competitive ELISA was performed. A 96-well MaxiSorp™ flat-bottom plate (Nunc) was coated with […] of hTie2-Fc (R&D Systems), which is a protein with the Fc of human IgG1 bound thereto. After that, the plate was washed five times with 0.05% (v/v) Tween-20-containing PBS (Phosphate Buffer Saline) and then blocked with 1% (v/v) BSA (Bovine serum albumin; Sigma)-containing PBS at a room temperature for 2 hours.
as §1, with “an HRP-conjugated anti-FLAG antibody (SIGMA)” for “an HRP-conjugated anti-human FC (Anti-hFc-HRP conjugated) antibody (SIGMA)”, “amount of 100 μl to” for “amount of 50 μl to”, “for 3 min. Then, the reaction” for “for 3 min and then, the reaction”

Kd [1] [nM] | Kd [2] [nM] | koff [2] [s⁻¹] | kon [2] [M⁻¹ s⁻¹] | IC50 (FLAG-Tagged hAng2) [nM] | Binder
0.36 | 0.44 | 0.000777 | 1.76e+06 | 0.37 | SAIT-ANG-2-AB-4-F11 (IgG form) (antibody, V domains shown, Intact human antibody with human IgG1 constant region) VH: EVQLLESGGGLVQTGGSLRLSCAASGFTFSDYAMSWVRQAPGKGLEWVSSIYPDDGNTYYADSVKGRFTISRDNSKNTLYLQMNSLRAEDTAVYYCAKHPVRLNLHPMYYYYGMDVWGQGTLVTVSS VL: QSVLTQPPSASGTPGQRVTISCTGSSSNIGNNAVSWYQQLPGTAPKLLIYSDSQRPSGVPDRFSGSKSGTSASLAISGLRSEDEADYYCATWDYSLSAYVFGGGTKLTVLG
0.19 | 0.074 | 0.000327 | 4.4e+06 | 0.341 | SAIT-ANG-2-AB-8-A5 (IgG form) (antibody, V domains shown, Intact human antibody with human IgG1 constant region) VH: EVQLLESGGGLVQPGGSLRLSCAASGFTFSDYYMSWVRQAPGKGLEWVSGIYPSGGSTYYADSVKGRFTISRDNSKNTLYLQMNSLRAEDTAVYYCARDPSTLTYAGFDYWGQGTLVTVSS VL: QSVLTQPPSASGTPGQRVTISCSGSSSNIGNNYVTWYQQLPGTAPKLLIYADSHRPSGVPDRFSGSKSGTSASLAISGLRSEDEADYYCATWDYSLSGYVFGGGTKLTVLG
0.3 | 0.47 | 0.000546 | 1.16e+06 | 0.44 | SAIT-ANG-2-AB-3-D3 (IgG form) (antibody, V domains shown, Intact human antibody with human IgG1 constant region) VH: EVQLLESGGGLVQPGGSLRLSCAASGFTFSDYDMSWVRQAPGKGLEWVSGISSDDGNTYYADSVKGRFTISRDNSKNTLYLQMNSLRAEDTAVYYCARPTIDKYTLRGYYSYGMDVWGQGTLVTVSS VL: QSVLTQPPSASGTPGQRVTISCTGSSSNIGSNYVSWYQQLPGTAPKLLIYSDNKRPSGVPDRFSGSKSGTSASLAISGLRSEDEADYYCGTWDDSLNGYVFGGGTKLTVLG
0.35 | 0.65 | 0.000795 | 1.22e+06 | 0.605 | SAIT-ANG-2-AB-2-E6 (IgG form) (antibody, V domains shown, Intact human antibody: VH cloned into a vector with the constant region and Fc region of human IgG1, VL into pFUSE2-CLIg-hl2 (light chain constant region)) VH: EVQLLESGGGLVQTGGSLRLSCAASGFTFSDYAMSWVRQAPGKGLEWVSAIYPDSGNKYYADSVKGRFTISRDNSKNTLYLQMNSLRAEDTAVYYCARHSSDPKVKSGYYDDGMDVWGQGTLVAVSS VL: QSVLTQPPSASGTPGQRVTISCSGSSSNIGNNAVNWYQQLPGTAPKLLIYADSNRPSGVPDRFSGSKSGTSASLAISGLRSEDEADYYCGSWDYSLSGYVFGGGTKLTVLG
 | 0.205 | 0.000366 | 1.78e+06 | 0.392 | SAIT-ANG-2-AB-7-C9 (IgG form) (antibody, V domains shown, Intact human antibody with human IgG1 constant region) VH: EVQLLESGGGLVQPGGSLRLSCAASGFTFSNYAMSWVRQAPGKGLEWVSAISSGGGNIYYADSVKGRFTISRDNSKNTLYLQMNSLRAEDTAVYYCAKSGIQPSPPSMSSAYAMDVWGQGTLVTVSS VL: QSVLTQPPSASGTPGQRVTISCSGSSSNIGNNDVYWYQQLPGTAPKLLIYANSHRPSGVPDRFSGSKSGTSASLAISGLRSEDEADYYCGTWDYSLSGYVFGGGTKLTVLG
0.28 | 0.588 | 0.00049 | 833000 | 0.421 | SAIT-ANG-2-AB-4-C11 (IgG form) (antibody, V domains shown, Intact human antibody with human IgG1 constant region) VH: EVQLLESGGGLVQPGGSLRLSCAASGFTFSDYAMSWVRQAPGKGLEWVSSIYPDDGNTYYADSVKGRFTISRDNSKNTLYLQMNSLRAEDTAVYYCARHTSHHTSIDGYYYYGMDGWGQGTLVTVSS VL: QSVLTQPPSASGTPGQRVTISCTGSSSNIGNNDVSWYQQLPGTAPKLLIYSDSKRPSGVPDRFSGSKSGTSASLAISGLRSEDEADYYCGSWDYSLSGYVFGGGTKLTVLG
 | 0.589 | 0.00112 | 1.9e+06 | 1.52 | SAIT-ANG-2-AB-4-F5 (IgG form) (antibody, V domains shown, Intact human antibody with human IgG1 constant region) VH: EVQLLESGGGLVQPGGSLRLSCAASGFTFSDYDMSWVRQAPGKGLEWVSSISHGDSNKYYADSVKGRFTISRDNSKNTLYLQMNSLRAEDTAVYYCAKSSGIQESPPTYYYYGMDVWGQGTLVTVSS VL: QSVLTQPPSASGTPGQRVTISCSGSSSNIGSNAVNWYQQLPGTAPKLLIYADSNRPSGVPDRFSGSKSGTSASLAISGLRSEDEADYYCGSWDYSLSGYVFGGGTKLTVLG
